Consider 16 sequences from the nanobody polyreactivity screen of Harvey et al. (2022).

The series can be described thus: yeast display, Sf9 membrane polyspecificity reagent, FACS + sequencing; frameworks hold sequencing errors. Put shortly:
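Nanobodies from a synthetic yeast display library (Saccharomyces cerevisiae BJ5465), induced 36–48 hours with galactose, were stained 1 hour at 4 °C with 10% biotinylated, detergent-solubilized Sf9 membrane reagent, enriched on streptavidin microbeads, then FACS-sorted. Anti-HA (expression) and streptavidin (reagent binding) fluorescence set low and high (top ~1%) gates. Polyreactivity labels come from the gate of origin. Genes were colony-PCR amplified, MiSeq 2 × 250 sequenced and filtered by CDR length.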
For the sequence “QVQLVESGGGLVQAGGSLRLSCAASGLTFGYYTMGWYRQAPGKERELVAAITYSGGSTYYADSVKGRFTISRDNAKNTVYLQMNSLKPEDTAVYYCAAEGPVYTTYEYWGQGTQVTVSS”, the “polyreactivity (PSR sort gate)” value is recorded as “low polyreactivity”. As for “QVQLVESGGGLVQAGGSLRLSCAASGSTLVLNALGWYRQAPGKERELVAAITISGDTTYYADSVKGRFTISRDNAKNTVYLQMNSLKPEDTAVYYCAAVVSTVDGMEYWGQGTQVTVSS”, the “polyreactivity (PSR sort gate)” value is given as “low polyreactivity”. In the case of “QVQLVESGGGLVQAGGSLRLSCAASGSTFAYYAMGWYRQAPGKERELVAAISWRGGSTYYADSVKGRFTISRDNAKNTVYLLMNILKPEVTAVYYCAAARDRWGNYWGQGTQVTVSS” it was “high polyreactivity”; in that of “QVQLVESGGGLVQAGGSLRLSCAASGRIFGYYAMGWYRQAPGKERELVAAITRNGGSTYYADSVKGRFTISRDNAKNTVYLQMNSLKPEDTAVYYCAATKGGGRGYWGQGTQLTVSS”, “high polyreactivity”.

Turning to “QVHLVESWGGLVQAGGSLRLSCAASGSTFGYNAMGWYRQAPGKERELVAAITSGGSTNYADSVKGRFTISRDNAKNTVYLQMNSLKPEDTAVYYCAKLAADRRSYYWGQGTQVTVSS”, the “polyreactivity (PSR sort gate)” value was “high polyreactivity”. To “QVQLVESGGGLVQAGGSLRLSCAASGSISYVNAMGWYRQAPGKERELVAAITGGGSTNYADSVKGRFTISRDNAKNTVYLQMNSLKPEDTAVYYCAADADTDVVYILQEYDYWGQGTQVTVSS” belongs “low polyreactivity”. In the case of “QVQLVESGGGLVQARVSLRLSCAASGSIFNGYAMRWYRQAPGKESEFVAAISASGGGTYYADSVKGRFTISRDNAKNTVYLQMNSLKPEDTAVYYCNARYHPYYWGYRYDYWGQGTQVTVSS” it was “low polyreactivity”; in that of “QVQLVESGGGLVQAGGSLRLSCAASGRIFKTYTMGWYRQAPGKERELVAVITSGGGTYYADSVKGRFTISRDNAKNTVYLQMNSLKPEDTAVYYCAARGLESPYGYWGQGTQVTVSS”, “low polyreactivity”; in that of “QVQLVESGGGLVQAGGSLRLSCAASGRTLTLNAMGWYRQAPGKERELVAAISGSGGRTFYADSVKGRFTISRDNAKNTVYLQMNSLKPEDTAVYYCAADYFYLKWYEYWGQGTQVTVSS”, “high polyreactivity”.

For the sequence “QDQLVESGGGLVQAGGSLRLSCAASGFTFVINDMGWYRQAPGKERELVADITSGGDTYYADSVKGRFTISRDNAKNTVYLQMNSLKPEDTAVYYCNTDTYFPLYDYWGQGTQVTVSS”, the “polyreactivity (PSR sort gate)” value is “low polyreactivity”. As for “QVQLEESGGGLVQAGGSLRLSCAASGSTFTPNAMGWYRQAPGKEREFVAGIDWNDGSTYYADSVKGRFTISRDNAKNTVYLQMNSLQPEDTEVYYCNAQWVSWWSLYDYWGQGTQVTVSS”, the “polyreactivity (PSR sort gate)” value is on record as “high polyreactivity”. To “QVQLVESGGGLVQAGGSLRLSCAASGFTLWLYAMGWYRQAPGKERELVASISWAGGSTYYADSVKGRFTISRDNAKNTVYLQMNSLKPEDTAVYYCAASRARTRSAYNYSGQGTQVTVSS” belongs “high polyreactivity”; to “QVQLVESGGGLVQAGGSLRLSCAASGRTFSGNTMGWYRQAPGKERELVAVINSGTRTYYADSVKGRFTISRDNAKNTVYLHMNSLKPEDTAVYYCATRSKSPSTKYGYWGQGTQVTVSS”, “high polyreactivity”; to “QVQLVESGGGLVQAGGSLRLSCAASGSISKINAMGWYRQAPGKERELVAAINTGDSTYYADSVKGRFTISRDNEKNTVYLQMNSLKPEDTAVYYCAAEGSPTGYDYWGQGTQVTVSS”, “low polyreactivity”. In the case of “QVQLVESGGGLVQAGGSLSLSCAASGNTFYGYAMGWYRQAPGKERELVASITLSGDSTYYADSVKGRFTISRDNAKNTVYLQMNSLKPEDTAVFDCAGVYTYPLGYYHYTYDYWGQGTQVTVSS”, the “polyreactivity (PSR sort gate)” value was “low polyreactivity”. In the case of “QVQLVESGGGLLQAGGSLRLSCAASGFTIVCYAMGWYRQAPGKERELVAAISSGGSTYYADSVKGRFTISRDNAKNTVFLLMNSLKPEDTAVYYCAADREYYDEYAGYEYWGQGTQVTVSS” it was “low polyreactivity”.
